Laboratory results taken from patent US20240166745A1 (Eli Lilly, published 2024).
Changes are numbered by the printed parent chain. Values belong to the binder of their own block, whether it stands above or below them.

Key:
Human LAG-3 ECD-His = target: T1, Human LAG-3 ECD-His (human, UniProt P18627 23-449); experiment: SPR (Biacore T200), antibody captured on PrismA chip, ECD as analyte, 25° C.
T1 construct: Soluble analyte in SPR; the entry includes linker and His tag; also called human LAG-3-His
T1 sequence: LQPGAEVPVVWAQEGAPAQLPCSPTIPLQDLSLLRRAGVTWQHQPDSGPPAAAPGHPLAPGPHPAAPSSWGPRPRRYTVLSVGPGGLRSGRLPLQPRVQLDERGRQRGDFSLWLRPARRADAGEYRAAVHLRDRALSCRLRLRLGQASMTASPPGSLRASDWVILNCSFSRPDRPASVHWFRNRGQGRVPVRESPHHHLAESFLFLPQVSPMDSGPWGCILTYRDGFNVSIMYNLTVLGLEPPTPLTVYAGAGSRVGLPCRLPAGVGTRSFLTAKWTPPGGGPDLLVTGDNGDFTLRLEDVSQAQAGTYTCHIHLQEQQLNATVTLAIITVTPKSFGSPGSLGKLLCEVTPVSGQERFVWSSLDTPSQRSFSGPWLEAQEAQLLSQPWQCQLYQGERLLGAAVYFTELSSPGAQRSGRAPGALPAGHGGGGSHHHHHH
Method: (§1) A Biacore® T200 (Cytiva, Marlborough, MA) was used to measure the binding kinetics and affinities of the LAG-3 antibody to the LAG-3 soluble extracellular domain (ECD) and the bispecific antibody to soluble LAG-3-ECD and PD-1-ECD (human: Sino Biologicals, Cat #10377-H08H; cynomolgus: Sino Biologicals, Cat #90311-C08H) by surface plasmon resonance. Samples were diluted in HBS-EP+ (10 mM Hepes, 150 mM NaCl, 3 mM EDTA, 0.05% Tween-20, pH 7.6) (Teknova Cat #H8022) with 5 g/L of BSA (Jackson ImmunoResearch Cat #001-000-161) running buffer. PrismA Series S Sensor chip (Cat #29650263) is purchased from Cytiva.
(§2) Binding was evaluated using multi-cycle kinetics by an antibody capture method. Each cycle was performed at either 37° C. or 25° C. at a flow rate of 10 μL/min for antibody capture to the PrismA chip and 100 μL/min for analyte association (with 120 sec contact time) and dissociation (900 sec). Each cycle consisted of the following steps: injection of bispecific antibody at 1 μg/mL in HBS-EP+ targeting Rmax values of 125 RU (LAG-3 arm), 294 RU (PD-1 arm) and 63 RU (LAG-3 antibody) on flow cell, injection of analyte in HBS-EP+(concentration range of 62.5 nM to 0.25 nM by two-fold serial dilution for both human PD-1-ECD-His (SEQ ID NO: 40) and human LAG-3-His (SEQ ID NO: 42) followed by 900-second dissociation phase, and regeneration using 10 μL of 10 mM glycine hydrochloride, pH 1.5 over a 60-second contact time utilizing a 10 μL/min flow rate. All analyte concentrations were determined utilizing monomeric molecular weight (MW) values. Association rates (kₒₙ) and dissociation rates (koff) for LAG-3-ECD and PD-1-ECD were evaluated using double referencing by flow-cell one reference subtraction in addition to 0 nM blank subtraction and fit to “1:1 (Langmuir) binding” model in the BIAevaluation software version 4.1. The dissociation constant (KD) was calculated from the binding kinetics according to the relationship KD=Koff/Kₒₙ. Stoichiometry=[RUₘₐₓ/RUcaptured]/[MWanalyte/MWantibody] where MWAntibodyA is 150 kDa. Values are reported as mean±standard deviation.

Cynomolgus PD-1-ECD = target: T2, Cynomolgus PD-1-ECD (cynomolgus, UniProt B0LAJ3 25-170); experiment: as above
T2 construct: commercial protein; also called cynomolgus PD-1-ECD (Sino Biologicals, Cat #90311-C08H); not shown: C-terminal polyhistidine tag of the vendor product (Sino Biological 90311-C08H)
Method: as §1, §2

Cynomolgus LAG-3-ECD = target: T3, Cynomolgus LAG-3-ECD (cynomolgus); experiment: as above
T3 construct: as printed it starts with the N-terminal leader (MWEAQ...) and ends with a His tag; also called Cynomolgus LAG-3 ECD-His
T3 chain: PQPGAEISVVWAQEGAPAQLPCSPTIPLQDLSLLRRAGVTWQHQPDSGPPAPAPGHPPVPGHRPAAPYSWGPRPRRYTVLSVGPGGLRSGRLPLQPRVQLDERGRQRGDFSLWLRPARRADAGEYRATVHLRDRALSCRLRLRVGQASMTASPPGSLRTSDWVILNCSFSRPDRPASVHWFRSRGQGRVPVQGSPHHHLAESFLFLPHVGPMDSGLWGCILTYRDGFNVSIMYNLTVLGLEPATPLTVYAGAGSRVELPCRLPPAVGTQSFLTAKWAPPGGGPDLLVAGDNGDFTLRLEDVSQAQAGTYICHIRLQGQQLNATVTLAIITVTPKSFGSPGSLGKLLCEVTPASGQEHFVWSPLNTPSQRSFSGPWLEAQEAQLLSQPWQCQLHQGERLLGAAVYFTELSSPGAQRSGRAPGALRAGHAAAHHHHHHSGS
Method: as §1, §2

Human PD-1 ECD-His = target: T4, Human PD-1 ECD-His (human, UniProt Q15116 25-167); experiment: as above
T4 construct: Soluble analyte in SPR; the entry includes the His tag
Method: as §1, §2

[1] = target: T5, cell membrane-expressed cynomolgus LAG-3/PD-1 (cynomolgus); experiment: flow cytometry, labeled antibody on anti-CD3 activated cynomolgus PBMC, CD8 T cells, percent of cells bound (mean +/- SEM, n=3)
T5 construct: whole, on cells; Two separate membrane proteins on the same cells, not a complex; also called Cyno CD4
Method: Cells were incubated with 10-12 point, 3-fold serial dilutions of the respective labeled antibody (Invitrogen #S20026, Invitrogen #C20029), starting at 30 ug/mL, in PBS+2% FCS for 30 minutes at 4° C. and containing the following: CD4 eBioscience #12-0047-42 or Biolegend #344634; CD8 eBioscience #25-0088-42; CD3 eBioscience 56-0038-82 for human cells and BD #557917 for cyno cells; CD33 eBioscience 45-0338-42 for human cells; Live/Dead eBioscience #65-0865-18. After washing thoroughly, cells were processed on a BD Fortessa or Fortessa X20 cytometer, and data were analyzed with Flowjo software (BD Biosciences). Percent of cells bound by the respective antibody is quantified and graphed with Prism (Graphpad, San Diego, CA).

T4 sequence (Q15116 other isoform, or with tags, fused parts or gaps): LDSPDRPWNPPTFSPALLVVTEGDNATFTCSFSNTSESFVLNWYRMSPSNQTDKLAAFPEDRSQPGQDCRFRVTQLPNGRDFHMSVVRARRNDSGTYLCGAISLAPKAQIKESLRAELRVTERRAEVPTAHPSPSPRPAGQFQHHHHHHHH
T2 sequence (B0LAJ3 entry or part of it limits assumed): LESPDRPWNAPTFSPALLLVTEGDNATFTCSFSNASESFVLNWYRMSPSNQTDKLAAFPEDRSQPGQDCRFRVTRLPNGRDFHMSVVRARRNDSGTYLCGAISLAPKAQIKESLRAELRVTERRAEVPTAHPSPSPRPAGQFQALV
T5 sequence (P79185 26-458): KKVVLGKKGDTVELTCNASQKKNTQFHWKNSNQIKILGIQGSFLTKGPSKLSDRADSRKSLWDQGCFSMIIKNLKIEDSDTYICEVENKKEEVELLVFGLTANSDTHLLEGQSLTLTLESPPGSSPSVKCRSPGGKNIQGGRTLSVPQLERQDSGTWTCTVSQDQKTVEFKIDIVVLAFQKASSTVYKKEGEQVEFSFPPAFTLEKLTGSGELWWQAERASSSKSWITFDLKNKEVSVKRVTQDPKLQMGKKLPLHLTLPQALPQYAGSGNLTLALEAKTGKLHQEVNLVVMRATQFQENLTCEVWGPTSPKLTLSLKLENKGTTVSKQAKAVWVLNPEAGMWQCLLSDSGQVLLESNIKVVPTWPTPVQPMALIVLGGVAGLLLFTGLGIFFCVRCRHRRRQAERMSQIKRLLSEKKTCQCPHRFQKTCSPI

Kd (Human LAG-3 ECD-His): 0.55 nM
koff (Human LAG-3 ECD-His): 0.019 s⁻¹
kon (Human LAG-3 ECD-His): 3.4e+07 M⁻¹ s⁻¹
Kd (Cynomolgus PD-1-ECD): 1.6 nM
koff (Cynomolgus PD-1-ECD): 0.002 s⁻¹
kon (Cynomolgus PD-1-ECD): 1.3e+06 M⁻¹ s⁻¹
Kd (Cynomolgus LAG-3-ECD): 0.031 nM
koff (Cynomolgus LAG-3-ECD): 0.0017 s⁻¹
kon (Cynomolgus LAG-3-ECD): 5.4e+07 M⁻¹ s⁻¹
Kd (Human PD-1 ECD-His): 0.76 nM
koff (Human PD-1 ECD-His): 0.00057 s⁻¹
EC50 [1]: 0.0167 mg/L
B1: Antibody A (bispecific antibody, human IgG1, kappa, lambda)
heavy 1: not shown
light 1: DIVMTQTPLSLPVTPGEPASISCRSSQSLLDSAEGSTYLDWFLRKPGDSPQLLIYTLSYRASGVPDRFSGSGSGTDFTLKISRVEAEDVGVYYCMQRVEFPYTFGQGTKVEIKRTVAAPSVFIFPPSKEQLKSGTASVVCLLNNFYPREAKVQWKVDNALQSGNSQESVTEQDSKDSTYSLSSTLTLSKADYEKHKVYACEVTHQGLSSPVTKSFNRGEC
heavy 2: QVQLVQSGAEVKKPGASVKVSCKVSGYSLSKYDMSWVRKAPGKGLEWMGIIYTSGYTDYAQEFQGRVTMTEDTSTDTAYMELSSLRSEDTAVYYCATGNPYYTNGFNSWGQGTLVTVSSASTKGPSVFPLAPSSKSTSGGTAALGCLVKDYFPEPVTVSWNSGALTSGVATGPAVLQSSGLYSLSSVVTVPSSSLGTQTYICNVNHKPSNTKVDKRVEPKSCDKTHTCPPCPAPELLGGPSVFLFPPKPKDTLMISRTPEVTCVVVDVSHEDPEVKFNWYVDGVEVHNAKTKPREEQYNSTYRVVSVLTVLHQDWLNGKEYKCKVSNKALPAPIEKTISKAKGQPREPQVYTLPPSREEMTDNQVSLTCLVKGFYPSDIAVEWESNGQPENNYKTTPPVLMSDGSFFLASKLTVDKSRWQQGNVFSCSVMHEALHNHYTQKSLSLSPGK
light 2: RIQMTQSPSSLSASVGDRVTITCQASQSPNNLLAWYQDKPGKAPKLLIYGASDLPSGVPSRFSGSGSGTDFTLTISSLQPEDFATYYCQNNYYVGPVSYAFGGGTKVEIKGQPKAAPSVTLFPPSSEELQANKATLVCYISDFYPGAVTVAWKADSSPVKAGVETTTPSKQSNNKYAAWSYLSLTPEQWKSHRSYSCQVTHEGSTVEKTVAPTEC
notes: IgG-like bispecific with one LAG-3 arm and one PD-1 arm; also called human LAG-3/human PD-1 dual agonist bispecific antibody

Kd (Human LAG-3 ECD-His): 0.53 nM
koff (Human LAG-3 ECD-His): 0.023 s⁻¹
kon (Human LAG-3 ECD-His): 4.3e+07 M⁻¹ s⁻¹
Kd (Cynomolgus PD-1-ECD): 1.1 nM
koff (Cynomolgus PD-1-ECD): 0.0018 s⁻¹
kon (Cynomolgus PD-1-ECD): 1.7e+06 M⁻¹ s⁻¹
Kd (Cynomolgus LAG-3-ECD): 0.031 nM
koff (Cynomolgus LAG-3-ECD): 0.0017 s⁻¹
kon (Cynomolgus LAG-3-ECD): 5.5e+07 M⁻¹ s⁻¹
Kd (Human PD-1 ECD-His): 0.76 nM
koff (Human PD-1 ECD-His): 0.00058 s⁻¹
kon (Human PD-1 ECD-His): 770000 M⁻¹ s⁻¹
EC50 [1]: 0.018 mg/L
B2: Antibody B (bispecific antibody, human IgG1, kappa, lambda)
heavy 1: not shown
light 1: B1 light 1
heavy 2: B1 heavy 2 with K324A
light 2: B1 light 2
notes: also called human LAG-3/human PD-1 dual agonist bispecific antibody
